How the values were obtained:
[1] = target: dynein tail (HC^1-1455) complex (human) (UniProt Q14204); experiment: negative-stain EM with 3D classification
[2] = target: dynactin (purified from pig brains) (pig (endogenous in pig brain)) (UniProt F2Z5G5); experiment: negative-stain EM with 3D classification
[3] = target: dynactin (purified from pig brains) (pig (endogenous in pig brain)) (UniProt F2Z5G5); experiment: cryo-EM structure
[4] = target: wild-type human cytoplasmic dynein-1, SNAPf-tagged, labelled with TMR or Alexa647 (human) (UniProt Q14204)

percent of adaptor complexes with two dyneins (with m2 and m4) [1] [%]	percent of adaptor complexes with two dyneins (with m2 and m5) [1] [%]	percent of adaptor complexes with two dyneins (with m2 and m6) [1] [%]	percent of adaptor complexes with one dynein (with m5) [2] [%]	stoichiometry N [3]	velocity of BICD2 complexes containing both fluorophores, and hence two dyneins [4] [μm/s]	Substance
88	17	94	69	2		dynein tail (HC^1-1455) complex (from UniProt Q14204;O43237;P63172;P63167;Q9NP97)
					1.08	wild-type human cytoplasmic dynein-1, SNAPf-tagged, labelled with TMR or Alexa647 (from UniProt Q14204;O43237;P63172;P63167;Q9NP97) (complex)

From PMC5988349
